According to the DeepSol protein solubility set:

Assay: soluble on expression in E. coli; label from the status in PepcDB or PDB records

Sequence	soluble on expression in E. coli
RFNVFDFRGATLIADYGHNPDAIQALVRAIDTMPARRRSVVISGAGDRRDEDLRQQTEILGGAFDDVILYQDQCQRGRADGEVVALLRQGLQQAPRTRHIDEIQGEFVAIDAALERLAPGDLCLILVDQ	not soluble
MGHHHHHHSHMKEDKEVQTGYMNAQIEIIPCKICGDKSSGIHYGVITCEGCKGFFRRSQQSNATYSCPRQKNCLIDRTSRNRCQHCRLQKCLAVGMSRDAVKFGRMSKKQRDSLYAEVQKHRMQQQQRDHQQQPG	soluble
MDIRYFGTTPRYSEAVGANGLIFLSGMVPENGETAAEQTADVLAQIDRWLAECGSDKAHVLDAVIYLRDMGDYAEMNGVWDAWVAAGRTPARACVEARLARPEWRVEIKITAVKRDAATA	not soluble
MGSDKIHHHHHHMKITWFGHACFALEMEGKTIVTDPFDESVGYPIPNVTADVVTESHQHFDHNAHHLVKGNFRVIDRPGAYTVNGVKIKGVETFHDPSHGRERGKNIVFVFEGEGIKVCHLGDLGHVLTPAQVEEIGEIDVLLVPVGGTYTIGPKEAKEVADLLNAKVIIPMHYKTKYLKFNLLPVDDFLKLFDSYERVGNILELFEKPKERKVVVMEVQ	soluble
MSLALNLSKAVVGYLQVRPEEKFTARQIAEWVFATYPAECQEKRANSRGDYIKSDADLVQQLVAEISSQRPRMQMKHPALKTTEGRPRKYYYSEKSDSAEVAAAEGEGATAAADIGTSMLDEHALYPLLSQYLWEEFGVFSKRINEKRSSNKRGPNGNRWLYPDMVGMQDLGADWHREVRDCVKQYSDKRTKLWSFEVKLLINRSNIRECFFQAVSNSSWSNFGYLVAAEVSGQETLKELRMLFAAHGIGFIRLDVDNPADSQVLIPARERDAIDWDMANRLATENRDFLNYVKQVKQFYQTGEARFKDWDVPEEYSIQEGHHHHHH	soluble
ASMTGNECPELQPPVHGKIEPSQAKYFFKDQVLVSCDTGYKVLKDNVEMDTFQIECLKDGTWSNKIPTCKIVDCRAPGELEHGLITFSTRNNLTTYKSEIKYSCQEPYYKMLNNNTGIYTCSAQGVWMNKVLGRSLPTCLPVCGLPKFSRKLMAR	soluble
DPSEPGHADHLTAVMADAQPAIVLTNNASAAAVRRFFSALPGAQRPRIISIDSLPDTLAQSYQIPTPSMAAAAINPVDLPAFLQYTSGSTRTPAGVVLTNRSIVTNVLQIFAAAQLKTPLRLVSWLPL	not soluble
MADLSFIEDTVAFPEKEEDEEEEEEGVEWGYEEGVEWGLVFPDANGEYQSPINLNSREARYDPSLLDVRLSPNYVVCRDCEVTNDGHTIQVILKSKSVLSGGPLPQGHEFELYEVRFHWGRENQRGSEHTVNFKAFPMELHLIHWNSTLFGSIDEAVGKPHGIAIIALFVQIGKEHVGLKAVTEILQDIQYKGKSKTIPCFNPNTLLPDPLLRDYWVYEGSLTIPPCSEGVTWILFRYPLTISQLQIEEFRRLRTHVKGAELVEGCDGILGDNFRPTQPLSDRVIRAAFQLEHHHHHH	soluble
MGSDKIHHHHHHMPTGNELPINEGASALQMANTIFGPGVTVNTASYTGWSQSSGIYTNGDSVAPGVTPSDTGVILSTGRASHITQSNGDPNRSDSTSTNTPGPSNDPDFNAIAGFVGSNDASFLEVNFTPTTDVLTMQFTFASEEYPEYTGSVFNDIFGVWVNGALVASPVVNVTQINSVNQSENATLFNNNTDDDYNTEMDGFTVTLTLVMPVNINQPNDIKIGVADVADSAYDSNVLIAAGSIQGEFVAESDSITHLEGLTSVLDVLANDPTSGGIAFITHINGVEVNPGDSVTLSDGTIVTLLPSGELQIDPPATQTGLTSSETIHFTYTVDNGSGITDTAFVTVTAIPCFARGTMILTAHGEKPVETLVPGDRIATRDNGLQEIRWIGTRKVAAEGRFAPIAIEAGTFGMHRRLVVSPQHRVMLTHWMAEVMFGEDEVLVAAKDLVNDCSVRVLGPGDFDDGEVEYFHLLFDQHQIIFSDGLATESFLPGPTVMNDLDAAVQEEVLALFPDIDPDTKDGYGPAARLPLRAFEARAMLA	not soluble
MVYKNILVGLDGSSQADNAFKVACGLANALSADLHPIWIVNRDRGMDSSFGVNEDFYRDQYHQVQDKLVSYVEDAKKAGLKVTGEALVGNIKLVLANEYPKEHGIDLIVLGNTGLNTVEKLVVGSHTSYVIRNSACDVLVVK	not soluble
MGSDKIHHHHHHMTPAAVGQLVRTLEDWLGFPLFHRQTNGKNRLVATELAESVLPDIRAGFDKLTLALEKLKQDSLSGVLNIAVSPAFAEKWLLPRIDHFQKQYPDIDIRLDINLKTVDFLEQKVDVGVRYGQGQWQGLEAVKLMDEEVYPVCSPAFLNEHSFLLTPNDLKNITLIHDLSMEKHQQFPGWQSWLKSVGLNDINISRGMQINSSSAVLQAAMEGHGVALARSVMVQKDIQTGRLIRLFPQINFSSPFSYYLVYRPQYANLPKVKICLDWFFEEIHRI	not soluble
MSDHEEESHGASPTSPASSGASSPLAPISPRSEGNAPESPSGDVQDIYKDESFEAPASPARDSSAPASPSAASPAGSRSPSPSPVKTKSKVMIDSDEDSDAEESANKRALIDSDASDAEGKKRRVMLDSDDSDHEGTSKKEPTTKNLFGDDSDDDDEDRPKKTNDLDEFVEGRDEEESQETSKPAYDSDDDDGPVDRHGRHFEWDFDKMLAEKKAERKKKTRRGGKDGGIDIINDDDGTVSRLVERMKHAAKSDRNANIERKPAFQKIKMLPEVKAIMLRAGIVEVLIENGFMSALSEWLAPLPDKCLPALDIRITVLKLLHNPRFWKLDRSTLKQSGLGKAVMMLYKHPNETKENKGIANKLIGEWARPIYHLDTDYSTVSRQEREERDYSRMPEKRKKKINSRDEEEPNDDDQPKRPRIRDADEMGPTKSDDLKPGDKGYIPRARVPKPSTKDYVIRPEWRVTGAFKGEKKSTGNNRYDQTFRDFQERTKKSKANRIVKVSLEGRNMGI	soluble
MPLAVDLLHPEPQREIRCHKLKRLVQHPNSYFMDVKCSGCFKISTVFSHATTVVVCVGCNTVLCQPTRGKAKLTEGCSFRKKQ	not soluble
MSLDKVLVGYWHNWKSTGKDGYKGGSSADFNLSSTQEGYNVINVSFMKTPEGQTLPTFKPYNKTDTEFRAEISKLNAEGKSVLIALGGADAHIELKKSQESDFVNEIIRLVDTYGFDGLDIDLEQAAIEAADNQTVIPSALKKVKDHYRKDGKNFMITMAPEFPYLTSSGKYAPYINNLDSYYDFINPQYYNQGGDGFWDSDLNMWISQSNDEKKEDFLYGLTQRLVTGTDGFIKIPASKFVIGLPSNNDAAATGYVKDPNAVKNALNRLKASGNEIKGLMTWSVNWDAGTNSNGEKYNNTFVNTYAPMLFNNEGIITITTDPNSSSVDKLAAALEHHHHHH	soluble
MSLKSFNEIIMKVKSKEMKKVAVAVAQDEPVLEAVRDAKKNGIADAILVGDHDEIVSIALKIGMDVNDFEIVNEPNVKKAALKAVELVSTGKADMVMKGLVNTATFLRSVLNKEVGLRTGKTMSHVAVFETEKFDRLLFLTDVAFNTYPELKEKIDIVNNSVKVAHAIGIENPKVAPICAVEVINPKMPSTLDAAMLSKMSDRGQIKGCVVDGPLALDIALSEEAAHHKGVTGEVAGKADIFLMPNIETGNVMYKTLTYTTDSKNGGILVGTSAPVVLTSRADSHETKMNSIALAALVAGNKEGHHHHHH	soluble
MRLTKLAATIGCVTLSGLALVACSSDSTAGTDAVAVGGTFQFHSPDGKMEIFYDEADRQQLPDIGGDSLMEEGTQINLSDFENQVVILNAWGQWCAPCRSESDDLQIIHEELQAAGNGDTPGGTVLGINVRDYSRDIAQDFVTDNGLDYPSIYDPPFMTAASLGGVPASVIPTTIVLDKQHRPAAVFLREVTSKDVLDVALPLVDEA	not soluble
MKRGYVLHHRPYRESSALVNLLVDGIGRVDAVARVGSGKRSIKSILQPFQPLIFEFSGKSELKNISQIEAAAPAVPLSGYSLYAGMYINELLMRTLSVQHNAEALFFIYHQALVGLAAQFCESKLRYLELALLRELGAMPSLIRDTQGEPLIPEHCYQLVPELGFQFVLNSRAKHTYQGAMLTALNDNQLLQEQFLEAKRLMRSMLQPLLGNKPLVSRQLFIQAAASKVDGNN	not soluble
MGSDKIHHHHHHMEMEFNENNIDLETIIRDEVNKYLSRDIGDLPATQQAPLELREKYEKMEVPNKGRDIYEVLKDLNNEVLNYLYRPNHPRSFSFIPGPASRLSWLGDILTTANNIHASNFANATLPINIERNLINYLVGKIGYEIKPAGGVFVSGGSMANLTAIVAARDAQVEMEDIKKATVYLTSQTHHSVGKALHVAGFLKNNIRRIEYNDDFTMNTDSLKAAIDKDIEEGYKPAMVIATAGTTNTGSVDDFTTLGDICDHYNLWLHVDGAYGLSHILSDKAQHLFKGIERSDSASWDAHKLLFQTYSCAMVIVKEKNHLLQSFGEDAEYLDDIASDDDVIDPEMLGIELTRPARALKLWITLQVIGEDEIIERIKYGEGLAEYAEEYVSSLDNWRIISHANLSIVNFRYENSDLTEAQNNQLNSMAAQKIADSGYAIAYTTVLNNQRVIRLCTTNPLTTHDDIRETINRLDQYIGDYDMKDA	not soluble
MGSDKIHHHHHHMSTTEIVKEAESRHDFALIANWIQPQSKVLDLGCGNGSLLSFLREKLGVKGYGVDKDDDNVLACIGHGVNVIQMDLEAGLAGFDSLSFDYVILSQTLQAMVNTEGVLREMLRVGKQGIITFPNFGYWRHRIQLMAGHMPVSDNIPHQWYNTPNLHLCTIDDFEALCDKMNIRITDRIVINEGNTVSFMPNLFGSLAIYRFEQAAWPVSY	not soluble
MLSIIGQKTLTIMYWTLELASKLEDAPWPATKDELIDYAQRSGAPLEVIENLQEMEDEGEIYESIEDIWPDYPSKEDFFFNEEEY	not soluble
MGSDKIHHHHHHMAYLTIIKNGETIDHRKYGLKLLSFRKESLTHRTNFEEIGGRHGAIDTGTTFGERKLKATFLMQGVDHLDYQLMIDEVYALFACEDSIELIDSRQPGKVWTVKPSSTFEPDDLNPRSGKFEIEFTSPLPFASSYGSTLDPFTFGEEVWQIGQGLIPSDSLVYRHRTTRFSIFNAGNVEVDPCLEMPLNIVYKGASSNFSIKNKTTGQTISYNGTSKSTDSIKLEGLRHLKNGISIYGNTNRGYVSLKPGWNDFELTGTSGSFEITFDFFFFYK	not soluble
MATQTSKNPESVHDFTVKDAKENDVDLSIFKGKVLLIVNVASKCGMTNSNYAEMNQLYEKYKDQGLEILAFPCNQFGEEEPGTNDQITDFVCTRFKSEFPIFDKIDVNGENASPLYRFLKLGKWGIFGDDIQWNFAKFLVNKDGQVVDRYYPTTSPLSLERDIKQLLEIS	soluble
MSPRNDSTRKHRKSRSIKDDQHYPPVSFVGVESVGIIECPGSNHLSLASIPTTEFKIPDELALWVRGRIDNVAPKHPCDRRGQQPLAKKEISMNSSRSNSSFPARSPAIMTLMGGVPEAEKEYNVGKDGLLKVSKMMEGGKRYEVSANDRFTVFQQSAGQTCLFTFKA	not soluble
MGSDKIHHHHHHVPRVARIKSKSGIYHIIMRGINRQIVFEENEDCVKFIQTLQKIQAICKYRLYAYCLMGNHLHLLLMEGTEPLGNVMRRICSSYVLWYNKKYDRVGYLFQDRFKSEPVEDDGYFLTVLRYIFQNPVKAGIVTKIKDYKWTNYTDYIEGSNKTDTDFVLDFFNTNRERAIRSFIEYINKTNDDKCLDIPGKRQLTDEDAKKIIKDHCHIYNALDLYKFDVNKRNQYLKELKEGYGLSIRQIERLTGIGRGIIQRA	not soluble
RFSEVLSTPEYDNAKSPVTLALGHDIGGKPVITDLAKMPHLLVAGTTGSGKSVGVNAMILSILFKSGPEDAKLIMIDPKMLELSIYEGIPHLLCPVVTDMKDAANALRWSVAEMERRYKLMAKMGVRNLSGFNQKVKEAQDAGEPLADPLYKRESIHDEAPLLTKLPTIVVVVDEFADMMMIVGKKVEELIARIAQKARAAGIHLILATQRPSV	not soluble
